Laboratory results: the supplement of paper PMC11246515
± gives the standard deviation of the averaged measurements.

Test: total protein half-life in vivo (active degradation + dilution); higher = more stable protein
[1] = E. coli NCM3722 delta-clpP delta-lon delta-hslV, growth: N-lim chemostat, doubling time 6 h
[2] = E. coli NCM3722 delta-clpP, growth: N-lim chemostat, doubling time 6 h
[3] = wild type E. coli NCM3722, growth: C-lim chemostat, doubling time 6 h
[4] = wild type E. coli NCM3722, growth: P-lim chemostat, doubling time 12 h
[5] = E. coli NCM3722 delta-hslV, growth: N-lim chemostat, doubling time 6 h
[6] = E. coli NCM3722 delta-smpB, growth: N-lim chemostat, doubling time 6 h
[7] = wild type E. coli NCM3722, growth: C-lim chemostat, doubling time 3 h
[8] = wild type E. coli NCM3722, growth: C-lim chemostat, doubling time 12 h
[9] = wild type E. coli NCM3722, growth: N-lim chemostat, doubling time 6 h
[10] = wild type E. coli NCM3722, growth: N-lim chemostat, doubling time 12 h
[11] = wild type E. coli NCM3722, growth: P-lim chemostat, doubling time 6 h

| Sequence | total protein half-life in vivo [1] [h] | total protein half-life in vivo [2] [h] | total protein half-life in vivo [3] [h] | total protein half-life in vivo [4] [h] | total protein half-life in vivo [5] [h] | total protein half-life in vivo (E. coli NCM3722 delta-lon, growth: N-lim chemostat, doubling time 6 h) [h] | total protein half-life in vivo [6] [h] | total protein half-life in vivo [7] [h] | total protein half-life in vivo [8] [h] | total protein half-life in vivo [9] [h] | total protein half-life in vivo [10] [h] | total protein half-life in vivo [11] [h] |
| --- | --- | --- | --- | --- | --- | --- | --- | --- | --- | --- | --- | --- |
| MGSINLRIDDELKARSYAALEKMGVTPSEALRLMLEYIADNERLPFKQTLLSDEDAELVEIVKERLRNPKPVRVTLDEL [P0C079] | 3.41 ± 0.82 | 1.33 | 1.45 | 2.75 |  |  |  |  |  |  |  |  |
| MGTTTMGVKLDDATRERIKSAATRIDRTPHWLIKQAIFSYLEQLENSDTLPELPALLSGAANESDEAPTPAEEPHQPFLDFAEQILPQSVSRAAITAAYRRPETEAVSMLLEQARLPQPVAEQAHKLAYQLADKLRNQKNASGRAGMVQGLLQEFSLSSQEGVALMCLAEALLRIPDKATRDALIRDKISNGNWQSHIGRSPSLFVNAATWGLLFTGKLVSTHNEASLSRSLNRIIGKSGEPLIRKGVDMAMRLMGEQFVTGETIAEALANARKLEEKGFRYSYDMLGEAALTAADAQAYMVSYQQAIHAIGKASNGRGIYEGPGISIKLSALHPRYSRAQYDRVMEELYPRLKSLTLLARQYDIGINIDAEESDRLEISLDLLEKLCFEPELAGWNGIGFVIQAYQKRCPLVIDYLIDLATRSRRRLMIRLVKGAYWDSEIKRAQMDGLEGYPVYTRKVYTDVSYLACAKKLLAVPNLIYPQFATHNAHTLAAIYQLAGQNYYPGQYEFQCLHGMGEPLYEQVTGKVADGKLNRPCRIYAPVGTHETLLAYLVRRLLENGANTSFVNRIADTSLPLDELVADPVTAVEKLAQQEGQTGLPHPKIPLPRDLYGHGRDNSAGLDLANEHRLASLSSALLNSALQKWQALPMLEQPVAAGEMSPVINPAEPKDIVGYVREATPREVEQALESAVNNAPIWFATPPAERAAILHRAAVLMESQMQQLIGILVREAGKTFSNAIAEVREAVDFLHYYAGQVRDDFANETHRPLGPVVCISPWNFPLAIFTGQIAAALAAGNSVLAKPAEQTPLIAAQGIAILLEAGVPPGVVQLLPGRGETVGAQLTGDDRVRGVMFTGSTEVATLLQRNIASRLDAQGRPIPLIAETGGMNAMIVDSSALTEQVVVDVLASAFDSAGQRCSALRVLCLQDEIADHTLKMLRGAMAECRMGNPGRLTTDIGPVIDSEAKANIERHIQTMRSKGRPVFQAVRENSEDAREWQSGTFVAPTLIELDDFAELQKEVFGPVLHVVRYNRNQLPELIEQINASGYGLTLGVHTRIDETIAQVTGSAHVGNLYVNRNMVGAVVGVQPFGGEGLSGTGPKAGGPLYLYRLLANRPESALAVTLARQDAKYPVDAQLKAALTQPLNALREWAANRPELQALCTQYGELAQAGTQRLLPGPTGERNTWTLLPRERVLCIADDEQDALTQLAAVLAVGSQVLWPDDALHRQLVKALPSAVSERIQLAKAENITAQPFDAVIFHGDSDQLRALCEAVAARDGTIVSVQGFARGESNILLERLYIERSLSVNTAAAGGNASLMTIG | 5.93 ± 0.7 | 5.68 ± 0.72 | 3.5 ± 0.57 | 4.246 ± 0.04 | 2.39 ± 0.14 | 2.81 ± 0.3 | 2.34 ± 0.047 | 2.08 ± 0.093 | 4.276 ± 0.022 | 2.64 ± 0.23 | 3.8 ± 0.28 | 2.46 ± 0.32 |
| MHCPFCFAVDTKVIDSRLVGEGSSVRRRRQCLVCNERFTTFEVAELVMPRVVKSNDVREPFNEEKLRSGMLRALEKRPVSSDDVEMAINHIKSQLRATGEREVPSKMIGNLVMEQLKKLDKVAYIRFASVYRSFEDIKEFGEEIARLED [P0A8D0] | 6.05 ± 0.84 | 5.91 ± 0.41 | 4.6 ± 0.41 | 10.76 ± 0.082 | 4.362 ± 0.017 |  | 4 ± 0.71 | 2.98 ± 1.4 | 9.06 ± 0.4 | 4.15 ± 0.58 | 6.44 ± 0.094 | 4.677 ± 0.038 |
| MHEIFNMLLAVFDRAALMLICLFFLIRIRLFRELLHKSAHSPKELLAVTAIFSLFALFSTWSGVPVEGSLVNVRIIAVMSGGILFGPWVGIITGVIAGIHRYLIDIGGVTAIPCFITSILAGCISGWINLKIPKAQRWRVGILGGMLCETLTMILVIVWAPTTALGIDIVSKIGIPMILGSVCIGFIVLLVQSVEGEKEASAARQAKLALDIANKTLPLFRHVNSESLRKVCEIIRDDIHADAVAITNTDHVLAYVGVGEHNYQNGDDFISPTTRQAMNYGKIIIKNNDEAHRTPEIHSMLVIPLWEKGVVTGTLKIYYCHAHQITSSLQEMAVGLSQIISTQLEVSRAEQLREMANKAELRALQSKINPHFLFNALNAISSSIRLNPDTARQLIFNLSRYLRYNIELKDDEQIDIKKELYQIKDYIAIEQARFGDKLTVIYDIDEEVNCCIPSLLIQPLVENAIVHGIQPCKGKGVVTISVAECGNRVRIAVRDTGHGIDPKVIERVEANEMPGNKIGLLNVHHRVKLLYGEGLHIRRLEPGTEIAFYIPNQRTPVASQATLLL [P0AA93] | 6.72 | 6.87 ± 0.77 |  | 14.8 ± 0.34 | 6.53 ± 0.56 |  | 5.52 ± 0.31 | 2.84 ± 0.064 |  | 5.53 ± 0.67 |  |  |
| MHEITLCQRALELIEQQAAKHGAKRVTGVWLKIGAFSCVETSSLAFCFDLVCRGSVAEGCKLHLEEQEAECWCETCQQYVTLLTQRVRRCPQCHGDMLQIVADDGLQIRRIEIDQE [P0A700] | 4.63 | 2.12 |  |  |  |  | 1.76 |  | 11.3 | 2.36 | 2.23 |  |
